Assay results: US20110177074A1 (ZymoGenetics, published 2011)

Legend:
[1] = target: T1, human VEGF-A165 (human, UniProt P15692 207-395); experiment: SPR, VEGF-A immobilised, positive control, 1:1 dissociation fit
T1 construct: R&D Systems; homodimer; also called recombinant human VEGF-A

[2] = target: T1, human VEGF-A165; experiment: SPR (Biacore T100), VEGF-A immobilised, VEGFR-2-Fc5 analyte, bivalent analyte fit

B1: human VEGFR-2-Fc5 (Fc fusion)
chain: not shown
notes: also called VEGF Receptor-2
koff [1]: ~0.0002 s⁻¹ | Ka [2]: 1e+08 M⁻¹ | Kd [2]: 0.01 µM | koff [2]: 0.0002 s⁻¹ | kon [2]: 20000 M⁻¹ s⁻¹
